Earlier results in US7235522B2, “Use of microparticles having a protein and an antibody adsorbed thereon for preparing a pharmaceutical composition for intranasal administration” (priority 1997, dated 2007).

Settings: in vivo

insulin [insulin (51 AA)]
absorption of proteins administered by nasal route: almost zero
